From IntAct's records for PubMed 22922713

B1: WD repeat-containing protein 19 (Mus musculus), Q3UGF1 (parent)
chain: MKRVFSLLEKSWLGAPIQFAWQKSSGNYLAVTGADYIVKIFDRHGQKRSEISLPGNCVTMDWDKDGDILAVIAEKSSCIYLWDANTNKTSQLDNGMRDQMSFLLWSKIGSFLAVGTIKGNLLIYNHQTSRKIPVLGKHTKKITCGCWNSENLLALGGEDKMITVSNQEGDTIRQTPVKSEPSDIKFSMSKTDERISSAENTISAVVGKKMLFLFHLNEPDNPVDLEFQQAYGNIVCYSWYGDGYIMIGFSRGTFLAISTHFPEVGQEIFKARDHKDNLTSVALSQTLNKAATCGDNCIKIHDLTELRDMYAIINLDDENKGLGTLSWTDDGQLLALSTQRGSLHVFLTKLPILGDACHTRIAYLTSLLEVTVANLIEGEPPITVSVDVEPTFVAVGLYHLAVGMNNRAWFYVLGENVVKKLKDVEYLGTVASICLHSDYAAALFEGKIQLHLIENEMLDAQEERETRLFPAVDDKCRILCHALTSDFLIYGTDTGIIHYFFIEDWQFVNDYRHPVGVKKLFPDPNGTRLVFIDEKSDGFVYCPVNDATYEIPDFSPTIKGVLWENWPMDKGVFIAYDDDKVYTYAFHKDTIQGSKVILAGSTKLPFSHKPLLLYNGELTCQTQSGKINSIYLSTHSFLGSMKDTEPTDLRQMLTQTLLLKRFSDAWDICKMLNDRTSWSELAKACLHHMEVEFAIRVSRTMGDVGTVMSLEQIKGIEDYNLLAGHLAMFTNDFNLAQDLYLASNCPVAALEMRRDLQHWDSALQLAKRLAPDQIPFISKEYAIQLEFTGDYVNALAHYEKGITGDNKEHDEVCLAGVAQMSIRMGDIRRGANQALKHPSRVLKRDCGAILENMKQFSEAAQLYEKGQYYDRAASVYIRCKNWAKVGELLPHVSSPKIHLQYAKAKEADGRYKEAVVAYENAKQWNSVIRIYLDHLNNPEKAVSIVRETQSLDGAKMVARFFLQLGDYGSAIQFLVLSKCNNEAFTLAQQHNKMEIYADIIGAEDTTNEDYQSIALYFEGEKRHFQAGKFFLLCGQYSRALKHFLKCPSSEDNVAIEMAIETVGQAKDELLTNQLIDHLMGESDGMPKDAKYLFRLYMALKQYREAARTAIIIAREEQSAGNYRNAHDVLFSMYAELKAQKIKIPSEMATNLMILHSYILVKIHVKSGDHMKGARMLIRVANNISKFPSHIVPILTSTVIECHRAGLKNSAFSFAAMLMRPEYRNKIDAKYKKKIEAMVRRPDTSETEEATTPCPFCQFLLPECELLCPGCKNNIPYCIATGRHMLKDDWTMCPHCGFPALYSEFKILLNSESTCPMCSERLNSSQLKKITDCSQYLRTEME
partner: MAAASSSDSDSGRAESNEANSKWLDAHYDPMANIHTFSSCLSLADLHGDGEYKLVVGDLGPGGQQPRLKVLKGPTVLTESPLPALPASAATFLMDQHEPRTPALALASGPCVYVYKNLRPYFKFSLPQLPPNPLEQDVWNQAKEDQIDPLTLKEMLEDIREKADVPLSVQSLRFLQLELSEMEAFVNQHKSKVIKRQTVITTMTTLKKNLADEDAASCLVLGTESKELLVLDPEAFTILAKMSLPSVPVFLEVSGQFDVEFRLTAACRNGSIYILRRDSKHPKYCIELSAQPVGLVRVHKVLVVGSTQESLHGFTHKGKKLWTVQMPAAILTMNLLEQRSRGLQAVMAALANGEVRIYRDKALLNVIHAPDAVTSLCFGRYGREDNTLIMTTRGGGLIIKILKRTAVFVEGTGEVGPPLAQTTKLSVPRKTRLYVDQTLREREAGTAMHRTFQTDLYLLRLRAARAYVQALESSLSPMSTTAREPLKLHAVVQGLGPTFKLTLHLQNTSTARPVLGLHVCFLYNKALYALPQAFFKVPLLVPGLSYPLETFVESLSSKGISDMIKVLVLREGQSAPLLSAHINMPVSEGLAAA

Variants of: B1
Conditions: with bbs1_mouse Bbs1, Q3V3N7

Variant	effect of a mutation on the interaction
G341R	decreasing interaction strength
